One series addresses Dat (ACIAD1210) (Acinetobacter baylyi, UniProt Q6FCX2). The conditions noted are these: 10 mM DAP; 5 mM 2-oxoglutarate; 200 μM PLP; 200 μM NAD+; pH 9.0; 25 °C.
In a further series the target is AstC (ACIAD1284) (Acinetobacter baylyi, UniProt Q6FCQ2). The conditions noted are these: 10 mM DAP; 5 mM 2-oxoglutarate; 200 μM PLP; 200 μM NAD+; pH 9.0; 25 °C.
Substrate in series [1]: NC(=O)c1ccc[n+]([C@@H]2O[C@H](COP(=O)(O)OP(=O)(O)OC[C@H]3O[C@@H](n4cnc5c(N)ncnc54)[C@H](OP(=O)(O)O)[C@@H]3O)[C@@H](O)[C@H]2O)c1
Nature of the series: purified protein. Particulars: pH 9.0, 25 °C, varied: cofactor.

Substrate in series [2]: NC(=O)c1ccc[n+]([C@@H]2O[C@H](COP(=O)(O)OP(=O)(O)OC[C@H]3O[C@@H](n4cnc5c(N)ncnc54)[C@H](O)[C@@H]3O)[C@@H](O)[C@H]2O)c1
Description: purified protein. Particulars: pH 9.0, 25 °C, varied: cofactor.

Substrate in series [3]: NCCC=O
Nature of the series: purified protein. Particulars: pH 9.0, 25 °C.

Substrate in series [4]: NCC[C@H](N)C(=O)O
Nature of the series: purified protein. The series is classed as biochemical, Acinetobacter baylyi. Particulars: 100 mM Tris-HCl pH 8.5, 200 μM PLP, 2.5 mM CaCl2, 25 °C.

Substrate in series [5]: NCCCN
Description: purified protein. Particulars: 200 μM PLP.

Substrate in series [6]: O=C(O)CCC(=O)C(=O)O
Nature of the series: purified protein. The conditions noted are these: 4 mM GABA, 200 μM PLP, 5 mM NAD+, pH 9.0, 25 °C.

Substrate in series [7]: NCCCC(=O)O
Nature of the series: purified protein. Particulars: 500 μM 2-oxoglutarate, 200 μM PLP, 5 mM NAD+, pH 9.0, 25 °C.

Where [8] appears, read: 1 mM NAD+, BetB, 2.5 mM CaCl2, pH 9.0, 25 °C.
[9] abbreviates: 500 μM 2-oxoglutarate, 5 mM NAD+, pH 9.0, 25 °C.

Usually Km stands for the substrate concentration at which the rate is half of its maximum. A word on the kcat/Km: it is the second-order rate constant that governs catalysis at low substrate concentration. For orientation: kcat means the maximal rate divided by the concentration of active sites.

Chain of Dat (ACIAD1210) (Q6FCX2 1-456): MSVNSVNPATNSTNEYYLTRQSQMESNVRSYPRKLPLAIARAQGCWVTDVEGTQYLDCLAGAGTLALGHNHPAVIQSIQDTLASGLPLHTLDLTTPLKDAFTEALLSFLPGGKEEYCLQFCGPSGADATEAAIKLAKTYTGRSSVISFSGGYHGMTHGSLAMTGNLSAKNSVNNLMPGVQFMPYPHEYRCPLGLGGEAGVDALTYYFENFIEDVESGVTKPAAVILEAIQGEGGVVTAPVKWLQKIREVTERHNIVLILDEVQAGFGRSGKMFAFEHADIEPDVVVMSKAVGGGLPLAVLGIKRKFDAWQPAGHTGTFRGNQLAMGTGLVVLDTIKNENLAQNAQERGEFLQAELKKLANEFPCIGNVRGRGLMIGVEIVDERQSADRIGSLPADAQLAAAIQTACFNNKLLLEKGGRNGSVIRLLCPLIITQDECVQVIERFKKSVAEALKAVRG
Chain of AstC (ACIAD1284) (Q6FCQ2 1-403): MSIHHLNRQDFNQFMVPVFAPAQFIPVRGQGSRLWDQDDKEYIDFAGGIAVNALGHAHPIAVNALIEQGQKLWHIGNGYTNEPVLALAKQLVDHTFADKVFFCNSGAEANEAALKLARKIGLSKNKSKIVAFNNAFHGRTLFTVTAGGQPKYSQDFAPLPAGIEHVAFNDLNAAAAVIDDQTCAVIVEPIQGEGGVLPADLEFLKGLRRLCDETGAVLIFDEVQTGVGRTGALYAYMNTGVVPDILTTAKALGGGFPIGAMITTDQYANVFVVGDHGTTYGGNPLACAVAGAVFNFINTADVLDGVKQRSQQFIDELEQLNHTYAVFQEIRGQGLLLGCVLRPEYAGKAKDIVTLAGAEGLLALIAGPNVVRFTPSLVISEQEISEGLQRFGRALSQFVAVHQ

`NCCCN` [DAP]: the “BetB-coupled assay, NADH at 340 nm (aminotransferase)” value at Dat (ACIAD1210) is “activity of AstC and Dat was too low to determine their kinetic parameters”; at AstC (ACIAD1284), “activity of AstC and Dat was too low to determine their kinetic parameters”.

B1: GabD-like (ACIAD0960) (Acinetobacter baylyi ADP1) (protein)
chain: MAYATVNPYTGETLKEFPFATEQEVKAAIDAGYTAFTTWKDSSFATRAEVLNKAAKILRDKTDYYAKFLTLEMGKLFKEAQGEVEICAQIFEYYAKHAEELLAPTKLSTANKEINATIYYEPQGIVMAVEPWNFPFYQIARILSAQLAAGNTVILKHASIVPQSANAFEQLLLDAGLPQGAFKNLYMQHEHIPLVLNDHRVCGVALTGSEGAGAEVAAHAGKALKKSTLELGGSDAFIVLKDADLEKTAQLAVSGRHSNAGQVCTASKRFIVVDEVYDQFVELYKQGVAKLKAGDPMDPDTTLAPLCSQDAADQLKKQVEKAKAAGATVEAIGAPVPEQGAFFQPLLMTDIQEDNEARYWEFFGPVTQLYRAKDEADAIRIANDSPFGLGGSVYTADHARGVEVAKQIHTGMVYINHPTTSQADLPFGGVGRSGYGRELIDLGLKEFVNHKLIAITDIDAKL
For B1, in “purified protein [1]” (15 mM 3AP), the Km was 3718 ± 1138 µM and the kcat/Km stood at 1000 M⁻¹ s⁻¹. Besides, in “purified protein [2]” (15 mM 3AP), the Km turned out to be 4507 ± 363 µM, the kcat amounted to 1.68 ± 0.04 s⁻¹ and the kcat/Km was determined as 370 M⁻¹ s⁻¹.

B2: AcoD (ACIAD2018) (Acinetobacter baylyi ADP1) (protein)
chain: MRYIDPNQPGSKVQFKAQYENFIGGQWVPPVKGEYFGNSSPVDGKVFTQIPRSSVEDIELALDAAHKAKADWNKASPTVRSNVLLKIADRLEENLELLAVAETWENGKPIRETLAADIPLAIDHFRYFAGCIRAQEGGISEIDEDTIAYHFHEPLGVVGQIIPWNFPILMAAWKLAPALAAGNCIVLKPAEQTPSSILVLAELIQDLLPPGVLNIVNGYGAEVGRPLATNPRISKIAFTGSTKVGQMIMQYATENIIPVTLELGGKSPNIFFEDILDKEDDYLEKTLEGFAMFALNQGEVCTCPSRALVQESIADKFLEMAVERVKRIKTGHPLDTETMIGAQASKQQFDKILGCIDTGRNEGAQLLTGGDARHDVDGGFYIEPTIFKGNNSMKIFQEEIFGPVLSVTTFKDFDDAMRIANDTIYGLGAGVWSRSAHTSYRAGRAIEAGRVWTNCYHLYPAHAAFGGYKQSGIGRENHRMMLDHYQQTKNLLVSYSTKPMGFF
In the case of B2, in the series “purified protein [3]” (2 mM NAD+), the Km is 3559 ± 755 µM, the kcat turned out to be 1.55 ± 0.35 s⁻¹ and the specificity constant (kcat/Km) was determined as 440 M⁻¹ s⁻¹. In the series “purified protein [2]” (20 mM 3AP), the Km was 124 ± 49 µM and the kcat/Km was found to be 13000 M⁻¹ s⁻¹.

B3: Ddc (ACIAD1211) (Acinetobacter baylyi ADP1) (protein)
chain: MVDFAEHRKALLCNDAASIAEYQSAMDEAVKAVAAWLQNDKMYTGGSIKELRSAIAFNPSKEGLGLHQSLGRMVELFLNKSLKVHHPYSLAHLHCPTMVTSQIAEVLINATNQSMDSWDQSPAGSLMEVQLIDWLRQKVGYGVGQAGVFTSGGTQSNLMGVLLARDWAIAKNFTDENGQPWSVQRDGIPAEAMRNIKVICSENAHFSVQKNMAMMGMGFQSVVTVPVNENAQMDVDALEKTMSHLQSEGKIVACVVATAGTTDAGAIDPLKKIREITTKYGAWMHIDAAWGGALILSNDYRDMLDGIELSDSITLDFHKHYFQSISCGAFLLKDEANYRFMHYEAEYLNSAYDEEHGVPNLVSKSLQTTRRFDALKLWMTVEALGEELYGSMIDHGVKLTREVADYIKATEGLELLVEPQFASVLFRVVPDGYPVELIDTLNQNVADELFARGDANIGVTKVGAVQSLKMTTLSPVATLENVKGLLAMVLAESDRIKDSIAAGTYVPAID
Turning to B3, in “purified protein [4]”, the Km came to 1585 ± 257 µM, the kcat was 12.1 ± 1.1 s⁻¹ and the kcat/Km came out at 7600 M⁻¹ s⁻¹. In addition, in the series “purified protein [5]” (setting [8]), the Michaelis-Menten constant (Km) is 710 ± 113 µM, the turnover number (kcat) stood at 0.009 s⁻¹ and the kcat/Km was found to be 13 M⁻¹ s⁻¹.

B4: AdhA (ACIAD3339) (Acinetobacter baylyi ADP1) (protein)
chain: MGSLMKAAVVTAFNQPLEIKDVEIPKVTSGKVLVKMIATGVCHTDLHAMHGDWPIKPSLPFIPGHEGVGEVVEIGEGITHLKIGDTVGVPWLYSACGHCDHCYAGWETLCKQQQNSGYSVNGSFAEYCLADGEYVGVIPEGVDLLEIAPILCAGVTVYKGLKMTEAKTGDWVAISGIGGLGHVAVQYAKTMGFNVVAIDVDDSKLELAKQLGADVGINALKVDVKEEVLKATGEGCHGVLVTAVSPKAFEQAVSVVRRGGTMVLNGLPPGKFDLSIFDMVLDGITVRGSIVGTRLDLKEALDIAARGKVKAHISVEPLENINDIFERMEQGKIDGRIVIDLKL
Take B4: the Michaelis constant (Km) in “purified protein [3]” (9 mM NAD+) turned out to be 141 ± 28 µM. In the series “purified protein [2]” (2 mM 3AP), the Km is 1803 ± 305 µM and the kcat/Km was 520 M⁻¹ s⁻¹.

B5: GabT (ACIAD3446) (Acinetobacter baylyi ADP1) (protein)
chain: MDTKHSALNQRKQQATPRGVGVMCQWYADKAENATIWDAEGNTYIDFAGGIAVLNTGHRHPKVLAAVKAQLERFTHTAYQVTPYESYVALAERINELAPIAGPAKTTFFTTGAEAVENAVKIARCYTGRQGIITFGNGFHGRSFMTMAMTGKTAPYKRDFGLMPGGVFHARYPVESRGISVDDALESIENIFSEDVAPHDVAAIVLEPVQGEGGFNVVPADFLKRLRALCDKHGILLVADEVQTGFARTGKLYAMDHYETKADLITMAKSLGGGFPISGVVGRAEVMDAPNPGGLGGTYAGNPVAVAAAHAVIDAIQEEKLCERANELGAELVHVLKGLQQSTDQVITDIRALGSMVAAEFETAEQAKAVQNYAMQNGLLLLTCGKYGNVIRFLYPLTIPVEQFRSGLDILKQGVASLATDHTTQAIG
Regarding B5, in the series “purified protein [5]” (setting [9]), the Km amounted to 4356 ± 1014 µM, the kcat turned out to be 0.22 s⁻¹ and the catalytic efficiency (kcat/Km) came out at 51 M⁻¹ s⁻¹. Also, in “purified protein [6]”, the Km was 58 ± 7 µM and the kcat/Km turned out to be 8300 M⁻¹ s⁻¹. In “purified protein [7]”, the Km amounted to 399 ± 40 µM, the kcat worked out at 0.48 ± 0.021 s⁻¹ and the kcat/Km was 1200 M⁻¹ s⁻¹.

B6: BetB (ACIAD1009) (Acinetobacter baylyi ADP1) (protein)
chain: MSDVKLHRLYIHGQYTDATSGKTFDSINPATGEVIATIQQASQTDIEAAVKSAAEGQKVWAAKTAVERSRILRRAVDILRERNDELAQLETLDTGKAFSETSTVDIVTGADVLEYYAGLATAIQGEQVPLRESSFFYTRREPLGVVAGIGAWNYPIQIALWKSAPALAAGNAMIFKPSEVTPLTAFKLAEIYSEAGLPAGVFNVVQGAGREIGQWLTEHAVIEKISFTGGVETGKKVMASAAGSTLKEVTMELGGKSPLIICEDANLDRAADIAVMANFFSSGQVCTNGTRVFIPQRLKAAFEQAVVERVKRIRMGDPQHTDTNFGPLVSFPHMEKVLSYIESGKQQGAKVLIGGERATTGLLAQGAYVQPTVFTDCHDDMKIVQEEIFGPVMSILTYDTIEEAIERANNTNFGLAAGVVTQNISQAHQIIHQLEAGICWINTWGESPAEMPVGGYKESGVGRENGISTLNHYTRTKSIQVELGDYQSVF
In the case of B6, in the series “purified protein [1]” (2.5 mM 3AP), the Km worked out at 339 ± 67 µM, the kcat came to 2.43 ± 0.12 s⁻¹ and the kcat/Km was found to be 7200 M⁻¹ s⁻¹. Moreover, in the series “purified protein [3]” (2 mM NAD+), the Km stood at 82 ± 17 µM, the kcat came to 1.48 ± 0.16 s⁻¹ and the kcat/Km was found to be 18000 M⁻¹ s⁻¹. For the same molecule, in “purified protein [2]” (2.5 mM 3AP), the Km turned out to be 20 ± 4 µM and the kcat/Km stood at 74000 M⁻¹ s⁻¹.

The values are drawn from publication PMC9213253 (The Journal of Biological Chemistry, 2022).
